US20040091911, “Recombinant type II restriction endonucleases, MmeI and related endonucleases and methods for producing the same” (published 2004)

T1: MmeI (Methylophilus methylotrophus)
T1 chain: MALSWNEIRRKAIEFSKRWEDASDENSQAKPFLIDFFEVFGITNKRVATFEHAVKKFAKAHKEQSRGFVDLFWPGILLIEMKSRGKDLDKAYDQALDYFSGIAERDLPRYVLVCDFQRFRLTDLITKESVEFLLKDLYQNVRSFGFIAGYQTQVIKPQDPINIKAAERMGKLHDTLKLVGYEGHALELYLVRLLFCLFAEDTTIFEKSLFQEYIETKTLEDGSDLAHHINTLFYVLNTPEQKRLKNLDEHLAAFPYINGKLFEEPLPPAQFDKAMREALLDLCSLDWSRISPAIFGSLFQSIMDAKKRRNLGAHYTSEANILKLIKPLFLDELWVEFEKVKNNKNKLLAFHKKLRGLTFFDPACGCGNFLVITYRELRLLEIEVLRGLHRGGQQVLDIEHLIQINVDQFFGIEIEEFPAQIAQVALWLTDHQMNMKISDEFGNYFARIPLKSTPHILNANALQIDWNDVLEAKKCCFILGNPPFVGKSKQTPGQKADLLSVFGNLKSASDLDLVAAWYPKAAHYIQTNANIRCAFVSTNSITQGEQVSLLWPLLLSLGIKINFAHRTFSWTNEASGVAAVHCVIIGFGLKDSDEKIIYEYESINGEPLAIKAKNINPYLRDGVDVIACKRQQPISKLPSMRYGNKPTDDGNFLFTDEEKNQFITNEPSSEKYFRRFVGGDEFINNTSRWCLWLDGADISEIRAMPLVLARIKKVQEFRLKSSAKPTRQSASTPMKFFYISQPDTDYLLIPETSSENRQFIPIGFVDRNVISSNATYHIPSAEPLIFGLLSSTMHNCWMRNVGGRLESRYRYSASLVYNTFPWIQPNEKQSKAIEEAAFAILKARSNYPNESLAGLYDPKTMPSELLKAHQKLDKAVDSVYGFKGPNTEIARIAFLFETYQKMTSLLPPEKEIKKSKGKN


Legend:
[1] = molecular target: T1, MmeI; experiment: methyltransferase activity; 3H-SAM incorporation; details: preparation used with the oligos not specified; label: 5'-FAM both strands
[2] = molecular target: T1, MmeI; experiment: methyltransferase activity on top strand; 3H-SAM incorporation; details: preparation used with the oligos not specified; label: 5'-FAM both strands

Binder	activity [1]	activity [2]
oligo1+oligo2 unmethylated (dsDNA) DNA 1: GTTTGAAGACTCCGACGCGATGGCCAGCGATCGGCGCCTCAGCTTTTG DNA 2: CAAAAGCTGAGGCGCCGATCGCTGGCCATCGCGTCGGAGTCTTCAAAC	> 10 fold over background	–
oligo1+oligo4 bottom methylated (dsDNA, 6mA in bottom strand at GTCGG(6mA) (position 38)) DNA 1: GTTTGAAGACTCCGACGCGATGGCCAGCGATCGGCGCCTCAGCTTTTG DNA 2: CAAAAGCTGAGGCGCCGATCGCTGGCCATCGCGTCGGAGTCTTCAAAC	–	> 10 fold over background
